Test system: DraIII restriction endonuclease (R.DraIII) (Deinococcus radiophilus)
Assay: cleavage_in_vitro
Conditions: Source-15Q fraction 11; DraIII activity assayed on lambda DNA

lambda DNA was tested, and the activity was 121000 u/ml.

— patent US6048719
